The supplement of paper PMC10126150
± gives the standard deviation of the averaged measurements.

Tested on: ATP
Assay: switch fluorescence ratio, 500 uM ATP over buffer (Cy3 cluster intensity, sum of 5 cycles each) (fold (ratio)); higher = stronger signal-on switching upon ATP binding; sequences stand for … in TCGTCGGCAGCGTCAGATGTGTATAAGAGACAGTTTTTTTTTTTTTTTTTTTTTTTTT…TC
Settings: aptamer strand: ATP DNA aptamer (quencher-CACCTGGGGGAGTATTGCGGAGGAAGG + anchor), 100 nM annealed; ATP concentration: 500 uM
Procedure, shortened: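 Clusters carrying Cy3-labelled switching strands on a modified Illumina MiSeq flow-cell were annealed to 100 nM quencher-labelled ATP aptamer and imaged in selection buffer. They were imaged again after 15 min with 500 uM ATP at 22 °C, over five buffer/ATP cycles with NaOH stripping and re-annealing in between. For each cluster, the fluorescence ratio is the summed Cy3 intensity of the target cycles divided by that of the buffer cycles, averaged per switch-domain sequence. Clusters outside 100-1000 RFU were left out.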
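Also: ATP exposure 15 min at 22 °C before imaging.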

| Sequence | switch fluorescence ratio |
| --- | --- |
| AAGTGTCGGG | 0.994 ± 0.025 |
| CCAAGGCTGG | 1.02 ± 0.043 |
| TTTTGATCCG | 1.09 ± 0.082 |
| TCGGGCTGGT | 0.977 ± 0.011 |
| ACAGGTTGGT | 1.03 ± 0.018 |
| TTCTCTTTTT | 1.02 ± 0.036 |
| ATTGGCTGGA | 0.96 ± 0.076 |
| AGAATGGGGG | 1.02 ± 0.022 |
| TGGGGGGTGG | 1 ± 0.041 |
| TCCTGGGCGG | 1.077 ± 0.0028 |
| GGGGACGAAA | 0.997 ± 0.013 |
| ATTTTACGAA | 1.028 ± 0.0065 |
| GGGGCCCAGG | 1 ± 0.067 |
| AACGCTCGTC | 1.02 ± 0.06 |
| TTGGGTGGGA | 0.986 ± 0.044 |
| GCGAGGAATC | 1.0365 ± 0.00015 |
| GAGTTGGGCT | 0.979 ± 0.012 |
| CGAGCATAGG | 1.23 ± 0.085 |
| TGTTGTCGGT | 0.988 ± 0.063 |
| TTTAGTTACG | 0.987 ± 0.013 |
| AAACGGTAGC | 1.07 ± 0.017 |
| CGGTAGCGGG | 1.008 ± 0.007 |
| GCACCACCGT | 1.15 ± 0.014 |

| Sequence | switch fluorescence ratio |
| --- | --- |
| TAAAGCAGTA | 0.995 ± 0.018 |
| AATTGCACGG | 1.04 ± 0.016 |
| TATTACTATT | 0.999 ± 0.023 |
| CGTAATGTCT | 1.06 ± 0.031 |
| TTCTTTTTCG | 0.973 ± 0.056 |
| AGTGTTTGGC | 1.01 ± 0.022 |
| GATTCGAATC | 1 ± 0.034 |
| GGGTTCATTC | 0.998 ± 0.026 |
| GGGGGGGCCA | 1.01 ± 0.041 |
| GCATTACCGG | 1.03 ± 0.04 |
| GACTGTGATG | 0.9708 ± 0.0097 |
| CGTGTTGGG | 1 ± 0.028 |
| ATGTTGAAGG | 1.03 ± 0.069 |
| TTTTCCAATG | 1.02 ± 0.017 |
| GAGCTGAGCG | 0.996 ± 0.031 |
| ATTCTGTAAT | 1.01 ± 0.017 |
| TGCTGAAGAT | 1.003 ± 0.0067 |
| GGTATCCGGG | 0.974 ± 0.019 |
| AACTGAGAAG | 0.988 ± 0.015 |
| TGGGGCGTTT | 1.01 ± 0.022 |
| TAACTTATAA | 0.991 ± 0.0024 |
| CCGGTAAGGA | 0.994 ± 0.015 |
| TATAGCCTCG | 0.976 ± 0.017 |

| Sequence | switch fluorescence ratio |
| --- | --- |
| TTCAAGGAGT | 1.028 ± 0.0017 |
| TTGTTAATGA | 0.979 ± 0.046 |
| TTCGGAGGGT | 0.9899 ± 0.0088 |
| TGGTAGTGAC | 1.03 ± 0.064 |
| GTCCATAGGT | 1.02 ± 0.013 |
| GTTGAAAGTA | 0.977 ± 0.039 |
| GGGTGAAGTT | 0.984 ± 0.036 |
| ATTTAAATAG | 0.993 ± 0.035 |
| TAGTACTCGT | 1.01 ± 0.011 |
| AGGGGGCGGC | 0.995 ± 0.031 |
| GGAGAGCGCG | 0.976 ± 0.067 |
| AAGTTTGCGT | 0.993 ± 0.022 |
| TTCCTTTTTA | 1.02 ± 0.015 |
| TGCGCAGCGG | 1.005 ± 0.0094 |
| ATATATGTAA | 0.994 ± 0.023 |
| ACTTGAGGTC | 0.991 ± 0.028 |
| GGGGTTCGGG | 0.992 ± 0.017 |
| ATTGAAACGA | 1.08 ± 0.039 |
| CAGGGGGCTA | 1.01 ± 0.067 |
| TGCTTTAGCG | 1.0155 ± 0.00011 |
| TCTGTTCA | 1.005 ± 0.0075 |
| CTGTCTATGC | 1.33 ± 0.049 |
| GCGTAACTTC | 1.01 ± 0.044 |

| Sequence | switch fluorescence ratio |
| --- | --- |
| AGTAGAGTTT | 0.987 ± 0.013 |
| AAGACGGGTT | 1.02 ± 0.077 |
| GGGCAGCTGG | 0.981 ± 0.042 |
| GGGGTAGGTA | 0.96 ± 0.038 |
| GACTTAGGGA | 0.9949 ± 0.0013 |
| TTTCGTTCTC | 1.008 ± 0.0045 |
| TGCACCAGG | 3.29 ± 0.44 |
| TGATATAAGC | 1.03 ± 0.015 |
| CTGGGCAGAG | 1.02 ± 0.043 |
| AATGGGTCGT | 0.9673 ± 0.0077 |
| TTTTAATGCA | 0.977 ± 0.018 |
| GGGACTTTTT | 0.999 ± 0.043 |
| TATCTAGGGC | 1.025 ± 0.0042 |
| AAGATGAGCT | 1.004 ± 0.0043 |
| TGTATTAAGG | 1.01 ± 0.036 |
| AGTTATTGCC | 1.01 ± 0.029 |
| TTGGGTTCGT | 0.998 ± 0.037 |
| CGGTTTCTCG | 0.982 ± 0.02 |
| GAGGCAGGGG | 1.04 ± 0.072 |
| GGGGCGTTTT | 0.998 ± 0.023 |
| GTTTTGGTCC | 0.997 ± 0.012 |
| GAGATGTTAG | 0.971 ± 0.017 |
| GGTTTAAACT | 0.987 ± 0.016 |

| Sequence | switch fluorescence ratio |
| --- | --- |
| TGGCTATTGT | 0.9824 ± 0.0044 |
| AAGTTACCTG | 1.087 ± 0.0019 |
| TATTTAATGA | 1.54 ± 0.81 |
| CGGTATAGTT | 0.988 ± 0.022 |
| GCGGCATAAT | 1.02 ± 0.026 |
| GTGGGTTCGG | 1 ± 0.031 |
| TTCGAGAGTG | 0.945 ± 0.054 |
| ATGGTAATTT | 0.977 ± 0.017 |
| TTCTACAGTA | 1.036 ± 0.0059 |
| AAGTGGTGTT | 0.984 ± 0.028 |
| ATGAAGAGCG | 0.994 ± 0.015 |
| ATAAGCATTA | 1.05 ± 0.11 |
| GAGTTTTGCG | 1.03 ± 0.093 |
| CCTGAATTAT | 0.9941 ± 0.0012 |
| GCATTGGATA | 1 ± 0.014 |
| CGAGTCTCGT | 1.03 ± 0.04 |
| AGGCGCCTGT | 1.02 ± 0.017 |
| CAGAGGTCGT | 1.013 ± 0.0081 |
| TTTCAGGGGT | 1.86 ± 0.81 |
| AGCGGGGGGG | 1.02 ± 0.036 |
| TACGGTGTGC | 0.989 ± 0.024 |
| CATAATATTA | 0.9698 ± 0.0032 |
| TAGCCCGTGG | 1.02 ± 0.027 |

| Sequence | switch fluorescence ratio |
| --- | --- |
| CCAAGGGAGG | 1.01 ± 0.03 |
| AGCTATGCGC | 0.963 ± 0.056 |
| CAGTAATGTT | 0.994 ± 0.033 |
| AATTTGGTTA | 0.995 ± 0.045 |
| TGTAGAAAGG | 1.03 ± 0.046 |
| TTTATTATAT | 1.01 ± 0.031 |
| ACGGGGTGCA | 0.99 ± 0.017 |
| CTTGGGATTA | 1.03 ± 0.016 |
| AGGGTATTAT | 0.987 ± 0.019 |
| TTTTTAGTAT | 1.01 ± 0.035 |
| ATCATGCGGG | 0.99749 ± 7e-05 |
| AAACGCAACC | 1.57 ± 0.089 |
| TCGCTAATTG | 1.04 ± 0.022 |
| GGAAAATGGG | 1.02 ± 0.065 |
| TCTAAAATTA | 1.007 ± 0.0046 |
| AACGAAAAAG | 1.12 ± 0.18 |
| GCCTTTAGCT | 0.943 ± 0.011 |
| CTAATATCTC | 1.016 ± 0.01 |
| GGCGAAGGCC | 0.973 ± 0.02 |
| CGGGGGGTTA | 1.01 ± 0.033 |
| CCAACTTTAC | 1.57 ± 0.037 |
| AGTAGTTGGG | 0.967 ± 0.037 |
| CTGGTTTAGG | 1 ± 0.036 |

| Sequence | switch fluorescence ratio |
| --- | --- |
| GAGAATCGGG | 0.9564 ± 0.0089 |
| TGGAAAATTC | 1.019 ± 0.0078 |
| TTAAATTGAT | 0.987 ± 0.04 |
| GGGTAGACAG | 0.9316 ± 0.0069 |
| GGGGCTTTGG | 0.98 ± 0.025 |
| TGGCAAAGTT | 0.985 ± 0.013 |
| CGGGAGGCCT | 1.01 ± 0.062 |
| GAGACCTTTT | 1.13 ± 0.17 |
| GTGGGTATAC | 1.01 ± 0.026 |
| AATAGTACAA | 1.04 ± 0.0056 |
| GTAGAAAAAA | 1.002 ± 0.01 |
| CTCATATAGA | 0.991 ± 0.045 |
| AATGGGGCGG | 1.03 ± 0.034 |
| GCTCACAGAA | 1.02 ± 0.019 |
| ATATGGACGC | 1.01 ± 0.046 |
| CGCGCTGACA | 1.009 ± 0.0057 |
| CACTCCTGTG | 1.01 ± 0.04 |
| AGGCGAGGAT | 1.012 ± 0.0075 |
| TATACGACTC | 1.09 ± 0.068 |
